Results published in publication PMC3422223 (PLoS ONE, 2012).

Tests used:
CCL5 [1] = target: T1, CCL5 (Homo sapiens, UniProt P13501, biotin (sulfo-NHS-LC-biotin) in the Biacore and streptavidin-plate ELISA experiments; not biotinylated where coated directly); experiment: cell-based or functional assay
CCL3 [2] = target: T2, CCL3 (Homo sapiens, UniProt P10147, biotin (sulfo-NHS-LC-biotin) in the Biacore and streptavidin-plate ELISA experiments; not biotinylated where coated directly); experiment: cell-based or functional assay
T2 sequence (P10147 24-92): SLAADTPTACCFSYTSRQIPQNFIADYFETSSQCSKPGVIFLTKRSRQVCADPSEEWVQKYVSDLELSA

CCL4 [3] = target: T3, CCL4 (Homo sapiens, UniProt P13236, biotin (sulfo-NHS-LC-biotin) in the Biacore and streptavidin-plate ELISA experiments; not biotinylated where coated directly); experiment: cell-based or functional assay
T3 sequence (P13236 24-92): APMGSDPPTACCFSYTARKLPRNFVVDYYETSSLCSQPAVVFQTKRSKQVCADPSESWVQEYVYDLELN

CCL3 [4] = target: T2, CCL3; experiment: SPR; Biacore 2000; biotinylated CCL3, CCL4, CCL5 immobilised on a streptavidin chip (~100 RU); Fabs flowed over at 500 pM to 1 µM; regeneration 10 mM glycine pH 1.5; triplicate; 1:1 Langmuir fit, murine and humanized 18V4F Fabs fit to a steady state model; conditions: both partners purified
CCL4 [5] = target: T3, CCL4; experiment: as above; conditions: both partners purified
CCL5 [6] = target: T1, CCL5; experiment: as above; conditions: both partners purified

T1 sequence (P13501 24-91): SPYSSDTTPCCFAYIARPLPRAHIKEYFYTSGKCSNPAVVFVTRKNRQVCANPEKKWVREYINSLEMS

Binder | IC50 of inhibition of chemotaxis of CCR5-transfected Ba/F3 cells to 5 ng/mL CCL5 (blocks CCL5 with CCR5) (CCL5 [1]) [nM] | IC50 of inhibition of chemotaxis of CCR5-transfected Ba/F3 cells to 5 ng/mL CCL3 (blocks CCL3 with CCR5) (CCL3 [2]) [nM] | IC50 of inhibition of chemotaxis of CCR5-transfected Ba/F3 cells to 5 ng/mL CCL4 (blocks CCL4 with CCR5) (CCL4 [3]) [nM] | Kd (CCL3 [4]) [nM] | koff (CCL3 [4]) [s⁻¹] | kon (CCL3 [4]) [M⁻¹ s⁻¹] | Kd (CCL4 [5]) [nM] | koff (CCL4 [5]) [s⁻¹] | kon (CCL4 [5]) [M⁻¹ s⁻¹] | Kd (CCL5 [6]) [nM] | koff (CCL5 [6]) [s⁻¹] | kon (CCL5 [6]) [M⁻¹ s⁻¹]
18V4F Fab variant d7 (Fab, V domains shown) VH: EVQLVESGGGLVQPGGSLRLSCAASGFSLYDEGAHWVRQAPGKGLEWVGVIWPGGGTNYNSALMSRFTISKDNSKNTVYLQMNSLRAEDTAVYYCARGPLITTEVSMDYWGQGTLVTVSS VL: SAEVTQPPSVSVSPGQTARITCSSNTGAVTTSNYANWVQQKPGQAPVGLIGGTNERPSGIPERFSGSSSGNTATLTISGAQAEDEADYYCALWYSNHWVFGGGTKLTVL | 4.1 | 18 | 0.6 | 35 | 0.0033 | 110000 | 7.3 | 0.0004 | 60000 | – | – | –
humanized 18V4F Fab (Fab, V domains shown, also called Hu-18V4F) VH: EVQLVESGGGLVQPGGSLRLSCAASGFSLTGYAMHWVRQAPGKGLEWVGVIWPGGGTNYNSALMSRFTISKDNSKNTVYLQMNSLRAEDTAVYYCARGPLITTEVSMDYWGQGTLVTVSS VL: SAEVTQPPSVSVSPGQTARITCSSNTGAVTTSNYANWVQQKPGQAPVGLIGGTNERPSGIPERFSGSSSGNTATLTISGAQAEDEADYYCALWYSNHWVFGGGTKLTVL | > 1000 | > 1000 | > 1000 | 272 | – | – | 251 | – | – | 187 | – | –
d5d7 Fab (Fab, V domains shown, also called 18V4F Fab variant d5d7; not shown: His6, C-terminal, kept) VH: EVQLVESGGGLVQPGGSLRLSCAASGFSLYDEGAHWVRQAPGKGLEWVGVIWPGGGTNYNSALMSRFTISKDNSKNTVYLQMNSLRAEDTAVYYCARGPLITTEVSMDYWGQGTLVTVSS VL: SAEVTQPPSVSVSPGQTARITCSSNTPLRPYRNYANWVQQKPGQAPVGLIGGTNERPSGIPERFSGSSSGNTATLTISGAQAEDEADYYCALWYSNHWVFGGGTKLTVL | 0.9 | 1 | 0.2 | 8.5 | 0.0054 | 80000 | 1.8 | 0.0036 | 380000 | – | – | –
18V4F Fab variant d5 (Fab, V domains shown) VH: EVQLVESGGGLVQPGGSLRLSCAASGFSLTGYAMHWVRQAPGKGLEWVGVIWPGGGTNYNSALMSRFTISKDNSKNTVYLQMNSLRAEDTAVYYCARGPLITTEVSMDYWGQGTLVTVSS VL: SAEVTQPPSVSVSPGQTARITCSSNTPLRPYRNYANWVQQKPGQAPVGLIGGTNERPSGIPERFSGSSSGNTATLTISGAQAEDEADYYCALWYSNHWVFGGGTKLTVL | 105 | 187 | 49 | 30.4 | 0.0031 | 100000 | 15.9 | 0.0012 | 70000 | 5.5 | 0.0014 | 340000
18V4F hybridoma antibody (murine IgG2a/lambda) (antibody, V domains shown) VH: QVQLKESGPGLVAPSQSLSITCTVSGFSLTGYGIHWVRQPPGKGLEWLGVIWPGGGTNYNSALMSRLSISKDNSKSQVFLKMNSLQTDDTAMYYCARGPLITTEVSMDYWGQGTSVTVSS VL: QAVVTQESALTTSPGETVTLTCRSNTGAVTTSNYANWVQEKPDHLFTGLIGGTNNRAPGVPARFSGSLIGDKAALTITGAQTEDEAIYFCALWYSNHWVFGGGTKLTVL | > 1000 | 196 | 185 | – | – | – | – | – | – | – | – | –
murine 18V4F Fab (Fab, V domains shown, also called Mu-18V4F) VH: QVQLKESGPGLVAPSQSLSITCTVSGFSLTGYGIHWVRQPPGKGLEWLGVIWPGGGTNYNSALMSRLSISKDNSKSQVFLKMNSLQTDDTAMYYCARGPLITTEVSMDYWGQGTSVTVSS VL: QAVVTQESALTTSPGETVTLTCRSNTGAVTTSNYANWVQEKPDHLFTGLIGGTNNRAPGVPARFSGSLIGDKAALTITGAQTEDEAIYFCALWYSNHWVFGGGTKLTVL | – | – | – | 209 | – | – | 103 | – | – | 50.3 | – | –
